What was measured:
human HER3 receptor = human HER3 receptor (human, UniProt P21860 20-1342); experiment: cell-based or functional assay
[1] = target: T1, full-length human HER3 extracellular domain (ECD) (human, UniProt P21860 20-643); experiment: BIACORE, antibody captured on protein A, HER3 ECD as analyte, 25 C, 1:1 model
T1 construct: also called human HER3 ECD; HER3 ECD full length

[2] = target: T2, full-length rat HER3 extracellular domain (ECD) (rat, UniProt Q62799 20-643); experiment: BIACORE, antibody captured on protein A, rat HER3 ECD as analyte, 25 C, 1:1 model
T2 construct: extracellular domain; also called Rat HER3 ECD
T2 sequence (Q62799 20-643): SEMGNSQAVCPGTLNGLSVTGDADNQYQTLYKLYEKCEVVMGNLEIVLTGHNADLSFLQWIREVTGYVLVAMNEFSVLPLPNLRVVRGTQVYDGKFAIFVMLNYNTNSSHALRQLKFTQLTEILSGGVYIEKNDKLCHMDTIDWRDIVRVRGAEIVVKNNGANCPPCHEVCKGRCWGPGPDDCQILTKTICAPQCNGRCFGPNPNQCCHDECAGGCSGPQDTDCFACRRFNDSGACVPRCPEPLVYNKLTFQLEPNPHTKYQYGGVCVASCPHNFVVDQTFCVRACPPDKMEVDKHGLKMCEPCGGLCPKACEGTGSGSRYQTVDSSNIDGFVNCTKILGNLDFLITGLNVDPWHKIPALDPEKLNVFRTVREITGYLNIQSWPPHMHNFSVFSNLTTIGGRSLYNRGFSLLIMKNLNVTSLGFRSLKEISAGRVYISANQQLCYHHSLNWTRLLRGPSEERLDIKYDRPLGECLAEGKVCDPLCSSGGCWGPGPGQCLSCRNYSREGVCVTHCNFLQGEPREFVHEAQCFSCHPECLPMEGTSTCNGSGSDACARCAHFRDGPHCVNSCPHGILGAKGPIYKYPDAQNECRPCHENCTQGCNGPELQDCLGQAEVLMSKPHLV

Chain of human HER3 receptor (P21860 20-1342 limits assumed): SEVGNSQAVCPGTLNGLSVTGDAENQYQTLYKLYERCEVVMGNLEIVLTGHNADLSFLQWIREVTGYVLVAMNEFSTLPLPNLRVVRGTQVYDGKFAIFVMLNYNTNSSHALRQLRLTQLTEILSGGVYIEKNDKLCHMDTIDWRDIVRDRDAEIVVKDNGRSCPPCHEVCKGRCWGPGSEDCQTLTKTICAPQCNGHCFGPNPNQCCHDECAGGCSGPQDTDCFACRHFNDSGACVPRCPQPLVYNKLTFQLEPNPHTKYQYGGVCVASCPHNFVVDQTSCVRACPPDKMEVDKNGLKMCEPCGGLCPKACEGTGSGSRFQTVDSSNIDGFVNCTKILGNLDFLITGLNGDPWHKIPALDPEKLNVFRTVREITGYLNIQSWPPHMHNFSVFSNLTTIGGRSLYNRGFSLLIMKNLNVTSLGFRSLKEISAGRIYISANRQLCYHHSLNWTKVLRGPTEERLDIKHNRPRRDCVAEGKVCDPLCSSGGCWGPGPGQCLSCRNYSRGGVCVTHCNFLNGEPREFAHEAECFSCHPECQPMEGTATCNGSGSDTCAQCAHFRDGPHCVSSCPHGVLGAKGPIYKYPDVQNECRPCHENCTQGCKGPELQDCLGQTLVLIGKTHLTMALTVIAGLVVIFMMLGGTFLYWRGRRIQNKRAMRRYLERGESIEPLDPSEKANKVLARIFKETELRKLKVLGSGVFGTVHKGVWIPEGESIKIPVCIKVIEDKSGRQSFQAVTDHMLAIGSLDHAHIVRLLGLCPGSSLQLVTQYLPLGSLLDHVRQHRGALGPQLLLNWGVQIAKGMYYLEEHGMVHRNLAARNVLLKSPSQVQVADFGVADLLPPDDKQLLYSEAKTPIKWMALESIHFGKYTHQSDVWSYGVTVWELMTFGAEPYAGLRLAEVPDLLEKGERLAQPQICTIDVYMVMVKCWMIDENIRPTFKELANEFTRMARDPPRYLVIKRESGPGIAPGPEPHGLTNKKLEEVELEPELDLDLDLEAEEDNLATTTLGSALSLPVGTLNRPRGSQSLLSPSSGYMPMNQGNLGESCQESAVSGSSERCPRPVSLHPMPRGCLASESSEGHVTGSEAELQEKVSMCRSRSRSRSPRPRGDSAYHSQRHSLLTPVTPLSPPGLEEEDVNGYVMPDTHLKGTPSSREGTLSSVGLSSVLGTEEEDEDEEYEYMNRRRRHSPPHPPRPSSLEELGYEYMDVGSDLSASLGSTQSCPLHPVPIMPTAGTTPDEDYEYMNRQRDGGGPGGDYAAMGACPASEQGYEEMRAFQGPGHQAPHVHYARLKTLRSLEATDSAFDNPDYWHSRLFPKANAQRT
T1 sequence (P21860 20-643): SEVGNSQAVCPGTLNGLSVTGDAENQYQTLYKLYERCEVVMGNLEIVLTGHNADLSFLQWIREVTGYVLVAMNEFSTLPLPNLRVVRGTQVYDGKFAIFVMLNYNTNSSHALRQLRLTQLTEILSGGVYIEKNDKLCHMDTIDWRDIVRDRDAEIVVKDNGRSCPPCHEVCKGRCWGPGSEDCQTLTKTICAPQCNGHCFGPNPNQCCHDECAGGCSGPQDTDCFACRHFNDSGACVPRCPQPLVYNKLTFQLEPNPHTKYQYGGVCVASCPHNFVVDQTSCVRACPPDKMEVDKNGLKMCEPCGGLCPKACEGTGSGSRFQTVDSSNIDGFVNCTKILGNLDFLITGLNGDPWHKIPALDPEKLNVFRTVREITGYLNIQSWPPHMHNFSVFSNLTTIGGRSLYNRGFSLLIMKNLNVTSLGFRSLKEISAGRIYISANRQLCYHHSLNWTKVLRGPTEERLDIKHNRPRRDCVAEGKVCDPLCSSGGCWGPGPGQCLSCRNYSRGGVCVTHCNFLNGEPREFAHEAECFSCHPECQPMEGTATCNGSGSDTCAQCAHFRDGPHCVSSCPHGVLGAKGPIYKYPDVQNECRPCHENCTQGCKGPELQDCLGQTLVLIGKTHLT

B1: humanized 1D9 POTELLIGENT antibody (antibody, human IgG1, kappa, V domains shown)
VH: QVQLVQSGAEVKKPGASVKVSCKASGYTFTSYWMHWVRQAPGQGLEWMGVIDPSDGYSHYNQKFKGKVTLTVDTSISTAYMELSRLRSDDTAVYYCAGGLAGTLDYWGQGTTVTVSS
VL: DIQMTQSPSSLSASVGDRVTITCRSSQSIVHSSGNTYLQWFQQKPGKAPKLLIYKVSNRFSGVPSRFSGSGSGTDFTLTISSLQPEDFAVYYCFQGSHVPWTFGQGTKLEIKR
notes: also called humanized 1D9 H6L2 POTELLIGENT antibody; humanized POTELLIGENT antibody
Phospho-HER3 ELISA IC50, heregulin induced HER3 phosphorylation, BxPC3 cells (human HER3 receptor): 0.0056 mg/L
Phospho-HER3 ELISA IC50, heregulin induced HER3 phosphorylation, CHL-1 cells (human HER3 receptor): 0.0282 mg/L
Phospho-HER3 ELISA IC50, heregulin induced HER3 phosphorylation, N87 cells (human HER3 receptor): 0.0175 mg/L
Phospho-HER3 ELISA IC50, heregulin induced HER3 phosphorylation, SK-BR-3 cells (human HER3 receptor): 0.0034 mg/L
Kd [1]: 2.01 nM
koff [1]: 0.00223 s⁻¹
kon [1]: 1.11e+06 M⁻¹ s⁻¹
Kd [2]: 3.37 nM
koff [2]: 0.0011 s⁻¹
kon [2]: 326000 M⁻¹ s⁻¹

B2: humanized 1D9 Fc disabled antibody (antibody, V domains shown)
VH: QVQLVQSGAEVKKPGASVKVSCKASGYTFTSYWMHWVRQAPGQGLEWMGVIDPSDGYSHYNQKFKGKVTLTVDTSISTAYMELSRLRSDDTAVYYCAGGLAGTLDYWGQGTTVTVSS
VL: DIQMTQSPSSLSASVGDRVTITCRSSQSIVHSSGNTYLQWFQQKPGKAPKLLIYKVSNRFSGVPSRFSGSGSGTDFTLTISSLQPEDFAVYYCFQGSHVPWTFGQGTKLEIKR
notes: also called humanized 1D9 H6L2 Fc disabled antibody
Phospho-HER3 ELISA IC50, heregulin induced HER3 phosphorylation, BxPC3 cells (human HER3 receptor): 0.0107 mg/L
Phospho-HER3 ELISA IC50, heregulin induced HER3 phosphorylation, CHL-1 cells (human HER3 receptor): 0.0399 mg/L
Phospho-HER3 ELISA IC50, heregulin induced HER3 phosphorylation, N87 cells (human HER3 receptor): 0.0297 mg/L
Phospho-HER3 ELISA IC50, heregulin induced HER3 phosphorylation, SK-BR-3 cells (human HER3 receptor): 0.0044 mg/L
Kd [1]: 4.49 nM
koff [1]: 0.00122 s⁻¹
kon [1]: 271000 M⁻¹ s⁻¹

B3: humanized 1D9 antibody (antibody, human IgG1, kappa, V domains shown)
VH: QVQLVQSGAEVKKPGASVKVSCKASGYTFTSYWMHWVRQAPGQGLEWMGVIDPSDGYSHYNQKFKGKVTLTVDTSISTAYMELSRLRSDDTAVYYCAGGLAGTLDYWGQGTTVTVSS
VL: DIQMTQSPSSLSASVGDRVTITCRSSQSIVHSSGNTYLQWFQQKPGKAPKLLIYKVSNRFSGVPSRFSGSGSGTDFTLTISSLQPEDFAVYYCFQGSHVPWTFGQGTKLEIKR
Phospho-HER3 ELISA IC50, heregulin induced HER3 phosphorylation, BxPC3 cells (human HER3 receptor): 0.0116 mg/L
Phospho-HER3 ELISA IC50, heregulin induced HER3 phosphorylation, CHL-1 cells (human HER3 receptor): 0.0365 mg/L
Phospho-HER3 ELISA IC50, heregulin induced HER3 phosphorylation, N87 cells (human HER3 receptor): 0.0218 mg/L
Phospho-HER3 ELISA IC50, heregulin induced HER3 phosphorylation, SK-BR-3 cells (human HER3 receptor): 0.0036 mg/L

B4: murine 15D5 antibody (M5.15D5.2A1.1H10) (antibody, V domains shown)
VH: EFQLQQSGPELVKPGASVKISCKASGYSFTDYNMNWVKQNNGKSLEWIGGINPNYGTTVYNQKFKGKATLTVDQSSSTAYMQLVSLTSEDSAVYYCARMTTIVPFDYWGQGTTLTVSS
VL: DIQMTQTTFSLSASLGDRVTISCRASQDISNYLNWYQQKPDGTVKLLIYYTSTLHSGVPSRFSGSGSGTDYFLTIRNLEEEDIATYFCQQGYTLPWTFGGGTKLDIK
Phospho-HER3 ELISA IC50, heregulin induced HER3 phosphorylation, BT-474 cells (human HER3 receptor): 0.12 mg/L
Phospho-HER3 ELISA IC50, heregulin induced HER3 phosphorylation, BxPC3 cells (human HER3 receptor): 0.0541 mg/L
Phospho-HER3 ELISA IC50, heregulin induced HER3 phosphorylation, CHL-1 cells (human HER3 receptor): 0.138 mg/L
Phospho-HER3 ELISA IC50, heregulin induced HER3 phosphorylation, MCF7 cells (human HER3 receptor): 0.0593 mg/L
Phospho-HER3 ELISA IC50, heregulin induced HER3 phosphorylation, N87 cells (human HER3 receptor): 0.0533 mg/L
Phospho-HER3 ELISA IC50, heregulin induced HER3 phosphorylation, SK-BR-3 cells (human HER3 receptor): 0.0191 mg/L

B5: murine 1D9 antibody (M5.1D9.1F5) (antibody, V domains shown)
VH: QVQLQQPGAELVRPGTSVKLSCKASGYTFTSYWMHWVKQRPGQGLEWIGVIDPSDGYSHYNQKFKGKATLTVDTSSSTAYMQLSSLTSEDSAVYYCAGGLAGTLDYWGQGTTLTVSS
VL: DVLMTQTPLSLPVSLGDQASISCRSSQSIVHSSGNTYLQWFLQKPGQSPKLLISKVSNRFSGVPDRFSGSGSGTDFTLRISRVEAEDLGLYYCFQGSHVPWTFGGGTKLEIK
IC50, ligand (EGF, betacellulin or heregulin) induced HER3 receptor phosphorylation, SK-BR-3 cells (human HER3 receptor): ~0.003 mg/L
Phospho-HER3 ELISA IC50, heregulin induced HER3 phosphorylation, BT-474 cells (human HER3 receptor): 0.0223 mg/L
Phospho-HER3 ELISA IC50, heregulin induced HER3 phosphorylation, BxPC3 cells (human HER3 receptor): 0.0068 mg/L
Phospho-HER3 ELISA IC50, heregulin induced HER3 phosphorylation, CHL-1 cells (human HER3 receptor): 0.0406 mg/L
Phospho-HER3 ELISA IC50, heregulin induced HER3 phosphorylation, MCF7 cells (human HER3 receptor): 0.0104 mg/L
Phospho-HER3 ELISA IC50, heregulin induced HER3 phosphorylation, N87 cells (human HER3 receptor): 0.0204 mg/L
Phospho-HER3 ELISA IC50, heregulin induced HER3 phosphorylation, SK-BR-3 cells (human HER3 receptor): 0.0032 mg/L

Reference: patent WO2016059602A2 (dated 2016)
